Results from publication PMC6943190.

Legend:
[1] = target: C11+C661-SecA (Escherichia coli) (UniProt P10408); experiment: cross-linking
[2] = target: C403-SecA (Escherichia coli) (UniProt P10408); experiment: cross-linking

Substance	stoichiometry N [1]	stoichiometry N [2]
C11+C661-SecA (from UniProt P10408 1-901) (enzyme)	2	
C403-SecA (from UniProt P10408 1-901) (enzyme)		2
